Biological target: recombinant human CD137-ECD-Fc (APBio Inc.) (human, UniProt Q07011 24-186)
Assay: ELISA

Sequence of recombinant human CD137-ECD-Fc (APBio Inc.) (Q07011 24-186): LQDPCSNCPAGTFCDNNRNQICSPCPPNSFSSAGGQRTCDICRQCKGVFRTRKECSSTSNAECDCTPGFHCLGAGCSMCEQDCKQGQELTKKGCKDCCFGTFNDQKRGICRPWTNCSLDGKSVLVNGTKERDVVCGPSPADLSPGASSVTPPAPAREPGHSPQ

EC50	Binder
151 pM	anti-CD137 antibody clone 31 (antibody, V domains shown) VH: not shown VL: QSALTQPASVSGSPGQSITISCTGTSSDVGAYNFVSWYQQRPGKAPELMIYDVSDRPSGVSNRFSGSKSGNTASLTISGLQTEDEADYYCSSYTSSITRYVFGTGTKVTVLG
184 pM	anti-CD137 antibody clone 54 (antibody, V domains shown) VH: QVQLVQSGAEVKKPGSTVKVSCKASGGTFSSYAISWVRQAPGQGLEWMGRIIPILGIANYAQKFQGRVTITADKSTSTAYMELSSLRSEDTAVYYCASPPYYDSSGYYPLGAFDIWGQGTMVTVSS VL: SYELTQPPSVSVSPGQTASITCSGDKLGEKYASWYQQKAGQSPILVIYQDSKRPSGIPERFSGSNSGNTATLTISGLQAGDEADYYCQAWDGSSTYVFGTGTKVTVFG

From patent US20200407456A1 (published 2020)
